Reference: patent publication US20230331809A1 (Zymeworks, published 2023)
Where two headings read alike, the source gives them in different places.

Columns and labels:
[1] = target: T1, CD40 (Cluster of Differentiation 40) on cells (UniProt P25942 21-277, limits assumed); assay: cell-based or functional assay
[2] = target: T1, CD40 (Cluster of Differentiation 40) on …; assay: cell-based or functional assay; remark: listed apart in the source
[3] = target: T1, CD40 (Cluster of Differentiation 40) on …; assay: flow cytometry on Raji cells, sample without uPa
[4] = target: T1, CD40 (Cluster of Differentiation 40) on …; assay: flow cytometry on Raji cells (CD40), MFI
[5] = target: T1, CD40 (Cluster of Differentiation 40) on …; assay: flow cytometry on Raji cells, samples with and without uPa
[6] = target: T1, CD40 (Cluster of Differentiation 40) on …; assay: flow cytometry on Raji cells (CD40), MFI; sample treated with uPa; EC50 relative to v32477 -uPa
[7] = target: T1, CD40 (Cluster of Differentiation 40) on …; assay: flow cytometry on Raji cells (CD40), MFI; sample treated with uPa (variant has no cleavage site)
[8] = target: T2, CD3 (Cluster of Differentiation 3) on Jurkat cells and on pan T cells (human, UniProt P07766 23-207); assay: cell ELISA on Jurkat cells (CD3), OD450
T2 construct: whole, on cells

[9] = target: T3, PD-L1 (Programmed death-ligand 1) on cells (UniProt Q9NZQ7 19-290); assay: flow cytometry on PD-L1 transfected CHO-S cells, sample without uPa
T3 construct: whole, on cells

[10] = target: T2, CD3 (Cluster of Differentiation 3) on …; assay: cell ELISA on Jurkat cells (CD3), OD450; EC50 relative to v30421
[11] = target: T4, PD-1 (Programmed Cell Death Protein 1) on cells (UniProt Q15116 25-288); assay: flow cytometry on PD-1 transfected CHO-S cells, MFI; * poor fit
T4 construct: whole, on cells

[12] = target: T2, CD3 (Cluster of Differentiation 3) on …; assay: cell ELISA on Jurkat cells (CD3), OD450; remark: listed apart in the source
[13] = target: T2, CD3 (Cluster of Differentiation 3) on …; assay: cell ELISA on CD3-bearing Jurkat cells, sample without uPa
[14] = target: T2, CD3 (Cluster of Differentiation 3) on …; assay: cell ELISA on Jurkat cells (CD3), OD450; EC50 relative to v30421; remark: listed apart in the source

B1: Variant 32479: HA PD-1:WT PD-L1 masked aCD40 Mab, PD-L1 cleavable (not treated with uPa) (antibody, human IgG1, kappa)
heavy: not shown
light: AFTVTVPKDLYVVEYGSNMTIECKFPVEKQLDLAALIVYWEMEDKNIIQFVHGEEDLKVQHSSYRQRARLLKDQLSLGNAALQITDVKLQDAGVYRCMISYGGADYKRITVKVNAEAAAKEAAAKMSGRSANADIQMTQSPSSVSASVGDRVTITCRASQGIYSWLAWYQQKPGKAPNLLIYTASTLQSGVPSRFSGSGSGTDFTLTISSLQPEDFATYYCQQANIFPLTFGGGTKVEIKRTVAAPSVFIFPPSDEQLKSGTASVVCLLNNFYPREAKVQWKVDNALQSGNSQESVTEQDSKDSTYSLSSTLTLSKADYEKHKVYACEVTHQGLSSPVTKSFNRGEC
notes: also called v32479; untreated v32479
CD40 reporter gene assay, fold masking of activity [1]: 55 fold
EC50, CD40 RGA, FcgRIIB CHOK1 (sample v32479 - uPa) [2]: 2.64 µg/mL
EC50, CD40 RGA, WT CHOK1 (sample v32479 - uPa) [2]: 44.7 µg/mL
Fold wrt WT (EC50), CD40 RGA, FcgRIIB CHOK1 (sample v32479 - uPa) [2]: 54.3 fold
Fold wrt WT (EC50), CD40 RGA, WT CHOK1 (sample v32479 - uPa) [2]: 326 fold
fold reduction of binding vs unmasked v32477 [3]: 14 fold
EC50 [4]: 14 nM

B2: Variant 32477: Unmasked aCD40 mAb (antibody, human IgG1, kappa)
heavy: not shown
light: DIQMTQSPSSVSASVGDRVTITCRASQGIYSWLAWYQQKPGKAPNLLIYTASTLQSGVPSRFSGSGSGTDFTLTISSLQPEDFATYYCQQANIFPLTFGGGTKVEIKRTVAAPSVFIFPPSDEQLKSGTASVVCLLNNFYPREAKVQWKVDNALQSGNSQESVTEQDSKDSTYSLSSTLTLSKADYEKHKVYACEVTHQGLSSPVTKSFNRGEC
notes: also called v32477
EC50, CD40 RGA, FcgRIIB CHOK1 (sample v32477 + uPa) [2]: 0.03 µg/mL
EC50, CD40 RGA, FcgRIIB CHOK1 (sample v32477 - uPa) [2]: 0.05 µg/mL
EC50, CD40 RGA, HEK Blue only (sample v32477 + uPa) [2]: 0.13 µg/mL
EC50, CD40 RGA, HEK Blue only (sample v32477 - uPa) [2]: 0.15 µg/mL
EC50, CD40 RGA, WT CHOK1 (sample v32477 + uPa) [2]: 0.1 µg/mL
EC50, CD40 RGA, WT CHOK1 (sample v32477 - uPa) [2]: 0.14 µg/mL
Fold wrt WT (EC50), CD40 RGA, FcgRIIB CHOK1 (sample v32477 + uPa) [2]: 0.71 fold
Fold wrt WT (EC50), CD40 RGA, HEK Blue only (sample v32477 + uPa) [2]: 0.86 fold
Fold wrt WT (EC50), CD40 RGA, WT CHOK1 (sample v32477 + uPa) [2]: 0.75 fold
EC50 [4]: 0.98 nM
EC50 [5]: 1 nM
Fold wrt WT [6]: 0.96 fold
EC50 [7]: 0.94 nM

B3: Variant 30436: WT PD-1:HA PD-L1 masked CD3 × Her2 Fab × scFv Fc, PD-1 cleavable (not treated with uPa) (bispecific antibody, human IgG1, kappa, L234A L235A)
heavy: not shown
light: AFTVTVPKDLYVVEYGSNMTIECKFPVEKQLDLAALQVFWMMEDKNIIQFVHGEEDLKVQHSSYRQRARLLKDQLSLGNAALQITDVKLQDAGVYTCLIAYKGADYKRITVKVNAEAAAKEAAAKDIQMTQSPSSLSASVGDRVTMTCSASSSVSYMNWYQQKPGKAPKRWIYDSSKLASGVPARFSGSGSGTDYTLTISSLQPEDFATYYCQQWSRNPPTFGGGTKLQITRTVAAPSVFIFPPSDEQLKSGTASVVCLLNNFYPREAKVQWKVDNALQSGNSQESVTEQDSKDSTYSLSSTLTLSKADYEKHKVYACEVTHQGLSSPVTKSFNRGEC
chain: not shown
notes: also called masked, heavy-chain-cleavable variant
EC50 [8]: 180 nM
binding result [9]: no binding (tested: titrated from 200 nM at a 1:3 dilution)
Fold wrt WT [10]: 150 fold
Fold wrt v31931 [11]: > 35 fold

B4: Variant 30444: WT CTLA4:WT CD80 masked CD3 × Her2 Fab × scFv Fc, CTLA4 cleavable (not treated with uPa) (bispecific antibody, human IgG1, kappa, L234A L235A)
heavy: not shown
light: MHVAQPAVVLASSRGIASFVCEYASPGKATEVRVTVLRQADSQVTEVCAATYMMGNELTFLDDSICTGTSSGNQVNLTIQGLRAMDTGLYICKVELMYPPPYYLGIGNGTQIYVIDPEEAAAKEAAAKMSGRSANADIQMTQSPSSLSASVGDRVTMTCSASSSVSYMNWYQQKPGKAPKRWIYDSSKLASGVPARFSGSGSGTDYTLTISSLQPEDFATYYCQQWSRNPPTFGGGTKLQITRTVAAPSVFIFPPSDEQLKSGTASVVCLLNNFYPREAKVQWKVDNALQSGNSQESVTEQDSKDSTYSLSSTLTLSKADYEKHKVYACEVTHQGLSSPVTKSFNRGEC
chain: not shown
notes: also called v30444
EC50 [12]: 100 nM
fold decrease of target binding [13]: ~80 fold
Fold wrt WT [14]: 83 fold
